Laboratory results published in PMC7101311 (Nature Communications, 2020).
Blank lines part the entries; values can stand above or below the molecule they belong to.

B3: PCNA (proliferative cell nuclear antigen) from Pyrococcus abyssi (natural protein, UniProt Q9UYX8 1-249, looked up)
chain: MPFEIVFEGAKEFAQLIETASRLIDEAAFKVTEEGISMRAMDPSRVVLIDLNLPASIFSKYEVDGEETIGVNMDHLKKVLKRGKAKETLILRKGEENFLEISLQGTATRTFKLPLIDVEEIEVDLPELPFTAKVVILGDVIKEAVKDASLVSDSMKFIAKENEFTMRAEGETQEVEVKLTLEDEGLLDIEVQEETKSAYGISYLSDMVKGLGKADEVTIKFGNEMPMQMEYYIRDEGRLIFLLAPRVEE
notes: PCNA, Pyrococcus abyssi; open reading frame optimized and synthesized, in pET28-a(+) with a thrombin-cleavable N-terminal 6xHis tag; PCNA as used in cryo-EM, crystallisation, BLI (analyte) and primer extension; also called sliding clamp; source: E. coli BL21-CodonPlus (DE3)-RIPL, purified (heat step, HisTrap, heparin, size exclusion)

How the values were obtained:
[1] = target: primase (Saccharomyces cerevisiae) (UniProt P10363); details: cited from earlier work
[2] = target: PolD DP1 (small subunit, exonuclease-deficient);PolD DP2 (large catalytic subunit);PCNA (Pyrococcus abyssi;Pyrococcus …, UniProt Q9V2F3;PDB:6T8H_3;Q9UYX8 1-619;1-1275;1-249, H451A||); assay: cryo-EM structure (3.77 A); 2 mM Mg-acetate, 0.1 mM dAMPCPP (incoming nucleotide not seen in the map); Cryo-EM sample: 0.4 uM PolD, 1.2 uM PCNA, 0.7 uM DNA, 20 mM Na-HEPES pH 8, 0.01 mM NaCl (so in the source), 2 mM Mg-acetate, 0.1 mM dAMPCPP, 20 min at 4 C; details: protein: recombinant;recombinant;recombinant; copies: 1;1;3; 5' overhang 7 nt on template strand (18 bp duplex)
[3] = target: T1, His6-tagged PCNA from Pyrococcus abyssi (Pyrococcus abyssi, UniProt Q9UYX8 1-249); assay: SPR; Biacore T200; ~2000 RU His-tagged PCNA and PriS-PriL(1–210) on an NTA chip, His-tagged MBP as reference; cPIP peptide 0-200 µM, 30 s at 30 µL/min, 25 °C, buffer E with 100 µM EDTA; steady-state fit; details: both partners purified
T1 construct: PCNA, Pyrococcus abyssi; open reading frame optimized and synthesized, in pET28-a(+) with a thrombin-cleavable N-terminal 6xHis tag; PCNA with its His tag kept, captured on the NTA chip for SPR; also called His-tagged PCNA; source: E. coli BL21-CodonPlus (DE3)-RIPL, purified (heat step, HisTrap, heparin, size exclusion); not shown: His6, N-terminal, kept
T1 sequence (looked up): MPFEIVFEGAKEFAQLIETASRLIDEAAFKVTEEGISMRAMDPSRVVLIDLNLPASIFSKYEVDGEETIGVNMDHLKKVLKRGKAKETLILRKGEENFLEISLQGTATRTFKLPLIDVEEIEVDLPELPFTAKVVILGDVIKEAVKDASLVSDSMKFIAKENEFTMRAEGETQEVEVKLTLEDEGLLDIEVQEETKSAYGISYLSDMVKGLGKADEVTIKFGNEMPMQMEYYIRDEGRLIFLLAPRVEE

[4] = target: the molecule itself; assay: cryo-EM structure; 0.4 µM PolD (DP1 H451A), 1.2 µM PCNA, 0.7 µM primed DNA duplex (18-mer primer, 7-nt overhang), 0.1 mM dAMPCPP, buffer F (20 mM Na-Hepes pH 8, 0.01 mM NaCl, 2 mM Mg-acetate), 20 min at 4 °C; single-particle cryo-EM, 3.77 Å
[5] = target: B3; assay: BLI; Octet RED384; His-MBP-fused DP2 constructs captured on Ni-NTA biosensors (1.5 nm); PCNA or PriS-PriL(1–210) 31.25-2000 nM, 300 s, 25 °C, buffer E (20 mM Na-Hepes pH 8, 0.15 M NaCl) with 0.2 mg/mL BSA; steady-state fit; details: both partners purified

Sequence of primase (Saccharomyces cerevisiae) (P10363 whole entry, chain 1 of 2): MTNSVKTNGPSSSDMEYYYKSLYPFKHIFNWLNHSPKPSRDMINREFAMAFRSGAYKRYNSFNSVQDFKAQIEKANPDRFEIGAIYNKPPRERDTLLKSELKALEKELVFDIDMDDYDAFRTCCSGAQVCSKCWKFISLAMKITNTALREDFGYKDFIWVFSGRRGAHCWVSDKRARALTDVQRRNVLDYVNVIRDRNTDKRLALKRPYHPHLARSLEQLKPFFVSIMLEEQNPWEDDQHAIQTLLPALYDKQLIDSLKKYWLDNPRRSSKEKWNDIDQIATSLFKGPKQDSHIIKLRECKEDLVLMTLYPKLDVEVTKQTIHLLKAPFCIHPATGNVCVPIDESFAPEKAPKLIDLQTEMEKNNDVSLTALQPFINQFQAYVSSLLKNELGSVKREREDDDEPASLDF
Sequence of primase (Saccharomyces cerevisiae) (P20457 whole entry, chain 2 of 2, further chain): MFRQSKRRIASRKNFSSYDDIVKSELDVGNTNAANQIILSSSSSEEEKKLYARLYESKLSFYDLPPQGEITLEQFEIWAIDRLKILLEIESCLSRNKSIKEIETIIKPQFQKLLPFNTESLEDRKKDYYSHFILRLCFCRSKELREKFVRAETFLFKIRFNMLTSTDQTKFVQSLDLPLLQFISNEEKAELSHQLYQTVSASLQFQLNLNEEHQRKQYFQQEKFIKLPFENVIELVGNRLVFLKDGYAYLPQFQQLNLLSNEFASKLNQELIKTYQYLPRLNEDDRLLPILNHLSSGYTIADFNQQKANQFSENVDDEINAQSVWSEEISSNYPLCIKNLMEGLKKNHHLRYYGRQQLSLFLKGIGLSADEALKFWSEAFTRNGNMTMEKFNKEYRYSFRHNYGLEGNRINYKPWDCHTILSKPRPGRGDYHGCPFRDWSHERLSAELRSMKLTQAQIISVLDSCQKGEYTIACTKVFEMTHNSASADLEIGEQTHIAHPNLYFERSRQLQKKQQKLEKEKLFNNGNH
Sequence of PolD DP1 (small subunit, exonuclease-deficient);PolD DP2 (large catalytic subunit);PCNA (Q9V2F3 whole entry H451A, one chain of several): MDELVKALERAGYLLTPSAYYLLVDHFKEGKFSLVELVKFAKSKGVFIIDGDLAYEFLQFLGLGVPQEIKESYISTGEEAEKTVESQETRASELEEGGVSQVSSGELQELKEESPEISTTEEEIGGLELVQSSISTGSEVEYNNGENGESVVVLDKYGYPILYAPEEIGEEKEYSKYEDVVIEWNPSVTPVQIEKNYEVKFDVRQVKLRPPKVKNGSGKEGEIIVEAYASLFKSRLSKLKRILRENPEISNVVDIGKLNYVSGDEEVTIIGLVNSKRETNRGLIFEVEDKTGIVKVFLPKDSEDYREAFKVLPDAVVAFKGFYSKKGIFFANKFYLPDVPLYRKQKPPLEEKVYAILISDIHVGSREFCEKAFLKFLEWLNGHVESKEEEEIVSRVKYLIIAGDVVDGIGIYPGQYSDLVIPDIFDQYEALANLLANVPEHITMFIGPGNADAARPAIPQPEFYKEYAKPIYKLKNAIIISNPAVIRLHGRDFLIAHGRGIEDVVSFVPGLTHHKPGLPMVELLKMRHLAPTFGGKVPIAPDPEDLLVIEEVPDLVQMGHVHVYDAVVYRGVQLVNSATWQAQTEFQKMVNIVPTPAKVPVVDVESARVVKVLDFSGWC

Molecule: DNA polymerase alpha C-terminus (from UniProt P13382)
Kd [1]: 245 nM

B1: primer-template duplex (18-mer primer / 25-mer template) (dsDNA)
DNA 1: CGCCGGGCCGAGCCGTGC
DNA 2: AGGTCGTGCACGGCTCGGCCCGGCG
binding result [2]: binds

Kd [3]: 49000 ± 4000 nM
B2: cPIP peptide (12 amino-acid peptide mimicking the DP2 C-terminal PIP-box) (peptide)
peptide: KKRVISLEEFFS
notes: C-terminal PIP-box (cPIP) of PolD DP2, Pyrococcus abyssi; limits worked out from the printed residues V1258, I1259, L1261, F1264; also called canonical PIP-box; source: synthetic peptide (Smart Bioscience)

Molecule: B3
stoichiometry N [4]: 3

Kd [5]: 472 ± 120 nM
B4: MBP–iPIP-cPIP fusion (DP2:1196–1270) (domain or fragment, Pyrococcus abyssi, UniProt Q9V2F4 1381-1455, looked up)
chain: ETQLTLIVNPNDICQRLVMARTGEVNKSGLLENLSNGSKKTEKAEKAEKPRKKSDEKPKKKRVISLEEFFSRKSK
notes: C-terminal region of PolD DP2, Pyrococcus abyssi, residues 1196-1270, holding iPIP and cPIP; pIVEX His-MBP-TEV plasmid; TEV-cleavable N-terminal His6-MBP tag, kept for capture on Ni-NTA biosensors; also called His-MBP-fused DP2 construct; source: E. coli BL21-CodonPlus (DE3)-RIPL, purified (HisTrap, heparin, size exclusion; no heat step); not shown: His6, N-terminal, kept; MBP, N-terminal, kept
